In this assay the target is SARS-CoV-2 receptor-binding domain (RBD) of the spike protein (SARS-CoV-2) (UniProt P0DTC2).

The text below walks through data of patent publication US12098186.

Bamlanivimab/ LY-CoV555 (antibody) yielded a dissociation constant Kd of 3.5 nM. This lies in the single-digit nanomolar range.

As usually defined, the Kd is the equilibrium constant for the complex coming apart.
